# B1: HESX1 (parent)
# chain: QKKDCVPLMKPHRPWADTCSSSGK
# B2: CPN1 (parent)
# chain: RGVRRTASTPTPDDKLFQKLAKVY
# Variants of: B1
# Experiment: protein stability index of a GFP-peptide fusion (GPS, HEK-293T) (PSI 1-6); higher = more stable
# Settings: c terminus: a fixed tail appended
# 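Further: lentivirally expressed fusions sorted by FACS into six bins by GFP to DsRed ratio, PSI derived from sequencing read proportions per bin multiplied by bin number.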
row,Variant,protein stability index
1,QKSDCVPLMKPHRPWADTCSSSGK,3.69
2,QKIDCVPLMKPHRPWADTCSSSGK,3.01
3,QKLDCVPLMKPHRPWADTCSSSGK,3.42
4,QKFDCVPLMKPHRPWADTCSSSGK,4.05
5,QKTDCVPLMKPHRPWADTCSSSGK,3.13
6,QKYDCVPLMKPHRPWADTCSSSGK,3.06
7,QKRDCVPLMKPHRPWADTCSSSGK,2.92
8,QKMDCVPLMKPHRPWADTCSSSGK,3.53
9,QKWDCVPLMKPHRPWADTCSSSGK,4.36
10,QKDDCVPLMKPHRPWADTCSSSGK,3.81
11,QKADCVPLMKPHRPWADTCSSSGK,3.52
12,QKQDCVPLMKPHRPWADTCSSSGK,3.06
13,QKHDCVPLMKPHRPWADTCSSSGK,3.66
14,QKNDCVPLMKPHRPWADTCSSSGK,3.67
15,QKCDCVPLMKPHRPWADTCSSSGK,3.27
16,QKGDCVPLMKPHRPWADTCSSSGK,3.2
17,QKVDCVPLMKPHRPWADTCSSSGK,3.47
18,QKPDCVPLMKPHRPWADTCSSSGK,3.62
19,QKKDCVCLMKPHRPWADTCSSSGK,2.74
20,QKKDCVKLMKPHRPWADTCSSSGK,2.8
21,QKKDCVHLMKPHRPWADTCSSSGK,2.92
22,QKKDCVVLMKPHRPWADTCSSSGK,2.56
23,QKKDCVMLMKPHRPWADTCSSSGK,3.17
24,QKKDCVWLMKPHRPWADTCSSSGK,1.76

row,Variant,protein stability index
1,QKKDCVRLMKPHRPWADTCSSSGK,2.46
2,QKKDCVSLMKPHRPWADTCSSSGK,3.38
3,QKKDCVDLMKPHRPWADTCSSSGK,3.93
4,QKKDCVNLMKPHRPWADTCSSSGK,3.07
5,QKKDCVILMKPHRPWADTCSSSGK,2.44
6,QKKDCVTLMKPHRPWADTCSSSGK,2.7
7,QKKDCVLLMKPHRPWADTCSSSGK,2.68
8,QKKDCVQLMKPHRPWADTCSSSGK,3.34
9,QKKDCVYLMKPHRPWADTCSSSGK,2.78
10,QKKDCVALMKPHRPWADTCSSSGK,2.79
11,QKKDCVFLMKPHRPWADTCSSSGK,2.07
12,QKKDCVPAMKPHRPWADTCSSSGK,3.29
13,QKKDCVPEMKPHRPWADTCSSSGK,3.58
14,QKKDCVPCMKPHRPWADTCSSSGK,2.7
15,QKKDCVPVMKPHRPWADTCSSSGK,3.28
16,QKKDCVPDMKPHRPWADTCSSSGK,3.93
17,QKKDCVPMMKPHRPWADTCSSSGK,3
18,QKKDCVPWMKPHRPWADTCSSSGK,3.47
19,QKKDCVPIMKPHRPWADTCSSSGK,2.82
20,QKKDCVPHMKPHRPWADTCSSSGK,2.31
21,QKKDCVPGMKPHRPWADTCSSSGK,3.18
22,QKKDCVPFMKPHRPWADTCSSSGK,3.14
23,QKKDCVPRMKPHRPWADTCSSSGK,2.59
24,QKKDCVPSMKPHRPWADTCSSSGK,3.86

row,Variant,protein stability index
1,QKKDCVPNMKPHRPWADTCSSSGK,3.19
2,QKKDCVPQMKPHRPWADTCSSSGK,4.1
3,QKKDCVPYMKPHRPWADTCSSSGK,3.78
4,QKKDCVPKMKPHRPWADTCSSSGK,3.73
5,QKKDCVPPMKPHRPWADTCSSSGK,3.49
6,QKKDCVPTMKPHRPWADTCSSSGK,2.82
7,QKKDCVPLMAPHRPWADTCSSSGK,3.18
8,QKKDCVPLMCPHRPWADTCSSSGK,3.88
9,NKKDCVPLMKPHRPWADTCSSSGK,3.22
10,KKKDCVPLMKPHRPWADTCSSSGK,3.06
11,HKKDCVPLMKPHRPWADTCSSSGK,3.86
12,RKKDCVPLMKPHRPWADTCSSSGK,3.74
13,GKKDCVPLMKPHRPWADTCSSSGK,4.01
14,MKKDCVPLMKPHRPWADTCSSSGK,3.03
15,CKKDCVPLMKPHRPWADTCSSSGK,2.94
16,PKKDCVPLMKPHRPWADTCSSSGK,3.66
17,YKKDCVPLMKPHRPWADTCSSSGK,2.45
18,IKKDCVPLMKPHRPWADTCSSSGK,3.46
19,AKKDCVPLMKPHRPWADTCSSSGK,2.76
20,WKKDCVPLMKPHRPWADTCSSSGK,2.69
21,DKKDCVPLMKPHRPWADTCSSSGK,3.95
22,FKKDCVPLMKPHRPWADTCSSSGK,3.17
23,TKKDCVPLMKPHRPWADTCSSSGK,3.4
24,LKKDCVPLMKPHRPWADTCSSSGK,2.01

row,Variant,protein stability index
1,EKKDCVPLMKPHRPWADTCSSSGK,3.98
2,SKKDCVPLMKPHRPWADTCSSSGK,3.49
3,QKKDCVPLPKPHRPWADTCSSSGK,3.51
4,QKKDCVPLNKPHRPWADTCSSSGK,3.58
5,QKKDCVPLRKPHRPWADTCSSSGK,3.13
6,QKKDCVPLAKPHRPWADTCSSSGK,3.69
7,QKKDCVPLWKPHRPWADTCSSSGK,3
8,QKKDCVPLFKPHRPWADTCSSSGK,2.85
9,QKKDCVPLGKPHRPWADTCSSSGK,4.27
10,QKKDCVPLSKPHRPWADTCSSSGK,2.93
11,QKKDCVPLIKPHRPWADTCSSSGK,3.23
12,QKKDCVPLCKPHRPWADTCSSSGK,3.76
13,QKKDCVPLEKPHRPWADTCSSSGK,4.04
14,QKKDCVPLLKPHRPWADTCSSSGK,3.41
15,QKKDCVPLHKPHRPWADTCSSSGK,3.89
16,QKKDCVPLKKPHRPWADTCSSSGK,3.08
17,QKKDCVPLYKPHRPWADTCSSSGK,3.2
18,QKKDCVPLDKPHRPWADTCSSSGK,4.08
19,QKKDCVPLTKPHRPWADTCSSSGK,3.77
20,QKKDCIPLMKPHRPWADTCSSSGK,3.03
21,QKKDCLPLMKPHRPWADTCSSSGK,2.92
22,QKKDCYPLMKPHRPWADTCSSSGK,3.01
23,QKKDCGPLMKPHRPWADTCSSSGK,3.46
24,QKKDCWPLMKPHRPWADTCSSSGK,3.08

row,Variant,protein stability index
1,QKKDCTPLMKPHRPWADTCSSSGK,3.92
2,QKKDCRPLMKPHRPWADTCSSSGK,2.88
3,QKKDCSPLMKPHRPWADTCSSSGK,3.4
4,QKKDCNPLMKPHRPWADTCSSSGK,3.98
5,QKKDCAPLMKPHRPWADTCSSSGK,4.1
6,QKKDCMPLMKPHRPWADTCSSSGK,3.05
7,QKKDCKPLMKPHRPWADTCSSSGK,2.57
8,QKKDCPPLMKPHRPWADTCSSSGK,3.31
9,QKKDCDPLMKPHRPWADTCSSSGK,3.11
10,QKKDCEPLMKPHRPWADTCSSSGK,4.38
11,QKKDCCPLMKPHRPWADTCSSSGK,3.1
12,QKKDCHPLMKPHRPWADTCSSSGK,3.17
13,QKKDCQPLMKPHRPWADTCSSSGK,2.98
14,QKKDCFPLMKPHRPWADTCSSSGK,3.28
15,QLKDCVPLMKPHRPWADTCSSSGK,3.3
16,QDKDCVPLMKPHRPWADTCSSSGK,4.3
17,QYKDCVPLMKPHRPWADTCSSSGK,2.51
18,QCKDCVPLMKPHRPWADTCSSSGK,4.18
19,QWKDCVPLMKPHRPWADTCSSSGK,2.88
20,QMKDCVPLMKPHRPWADTCSSSGK,3.24
21,QIKDCVPLMKPHRPWADTCSSSGK,3.17
22,QVKDCVPLMKPHRPWADTCSSSGK,3.12
23,QNKDCVPLMKPHRPWADTCSSSGK,3.33
24,QPKDCVPLMKPHRPWADTCSSSGK,3.89

row,Variant,protein stability index
1,QGKDCVPLMKPHRPWADTCSSSGK,3.06
2,QEKDCVPLMKPHRPWADTCSSSGK,4.16
3,QAKDCVPLMKPHRPWADTCSSSGK,3.27
4,QFKDCVPLMKPHRPWADTCSSSGK,3.46
5,QSKDCVPLMKPHRPWADTCSSSGK,3.06
6,QHKDCVPLMKPHRPWADTCSSSGK,3.4
7,QTKDCVPLMKPHRPWADTCSSSGK,3.67
8,QKKDKVPLMKPHRPWADTCSSSGK,2.81
9,QKKDAVPLMKPHRPWADTCSSSGK,3.08
10,QKKDIVPLMKPHRPWADTCSSSGK,2.51
11,QKKDLVPLMKPHRPWADTCSSSGK,3.59
12,QKKDHVPLMKPHRPWADTCSSSGK,3.83
13,QKKDEVPLMKPHRPWADTCSSSGK,4.15
14,QKKDSVPLMKPHRPWADTCSSSGK,3.4
15,QKKDPVPLMKPHRPWADTCSSSGK,3.17
16,QKKDDVPLMKPHRPWADTCSSSGK,3.57
17,QKKDGVPLMKPHRPWADTCSSSGK,2.62
18,QKKDMVPLMKPHRPWADTCSSSGK,3.19
19,QKKDQVPLMKPHRPWADTCSSSGK,2.49
20,QKKDRVPLMKPHRPWADTCSSSGK,4.16
21,QKKDWVPLMKPHRPWADTCSSSGK,3.34
22,QKKDYVPLMKPHRPWADTCSSSGK,3.38
23,QKKDVVPLMKPHRPWADTCSSSGK,3.78
24,QKKDFVPLMKPHRPWADTCSSSGK,3.38

row,Variant,protein stability index
1,QKKDTVPLMKPHRPWADTCSSSGK,3.2
2,QKKDNVPLMKPHRPWADTCSSSGK,3.06
3,QKKACVPLMKPHRPWADTCSSSGK,2.87
4,QKKHCVPLMKPHRPWADTCSSSGK,3.08
5,QKKYCVPLMKPHRPWADTCSSSGK,2.72
6,QKKKCVPLMKPHRPWADTCSSSGK,2.89
7,QKKSCVPLMKPHRPWADTCSSSGK,2.92
8,QKKQCVPLMKPHRPWADTCSSSGK,3.54
9,QKKICVPLMKPHRPWADTCSSSGK,3.25
10,QKKNCVPLMKPHRPWADTCSSSGK,3.24
11,QKKWCVPLMKPHRPWADTCSSSGK,2.39
12,QKKFCVPLMKPHRPWADTCSSSGK,2.61
13,QKKCCVPLMKPHRPWADTCSSSGK,2.38
14,QKKTCVPLMKPHRPWADTCSSSGK,2.49
15,QKKRCVPLMKPHRPWADTCSSSGK,2.43
16,QKKLCVPLMKPHRPWADTCSSSGK,2.38
17,QKKMCVPLMKPHRPWADTCSSSGK,2.12
18,QKKVCVPLMKPHRPWADTCSSSGK,2.17
19,QKKGCVPLMKPHRPWADTCSSSGK,3.05
20,QKKPCVPLMKPHRPWADTCSSSGK,2.86

# Variants of: B2
# Experiment: as above
# Settings: c terminus: a fixed tail appended
row,Variant,protein stability index
1,RGVRRTASTPTPDDKLFQKLAKWY,1.92
2,RGVRRTASTPTPDDKLFQKLAKRY,3.84
3,RGVRRTASTPTPDDKLFQKLAKSY,2.7
4,RGVRRTASTPTPDDKLFQKLAKYY,1.9
5,RGVRRTASTPTPDDKLFQKLAKTY,2.4
6,RGVRRTASTPTPDDKLFQKLAKVN,3.33
7,RGVRRTASTPTPDDKLFQKLAKVC,2.22
8,RGVRRTASTPTPDDKLFQKLAKVH,3.1
9,RGVRRTASTPTPDDKLFQKLAKVL,2.49
10,RGVRRTASTPTPDDKLFQKLAKVM,1.66
11,RGVRRTASTPTPDDKLFQKLAKVK,3.95
12,RGVRRTASTPTPDDKLFQKLAKVQ,2.92
13,RGVRRTASTPTPDDKLFQKLAKVE,3.49
14,RGVRRTASTPTPDDKLFQKLAKVG,3
15,RGVRRTASTPTPDDKLFQKLAKVV,2.7
16,RGVRRTASTPTPDDKLFQKLAKVD,3.48
17,RGVRRTASTPTPDDKLFQKLAKVI,2.6
18,RGVRRTASTPTPDDKLFQKLAKVA,2.51
19,RGVRRTASTPTPDDKLFQKLAKVR,2.29
20,RGVRRTASTPTPDDKLFQKLAKVP,2.72
21,RGVRRTASTPTPDDKLFQKLAKVT,3.64
22,RGVRRTASTPTPDDKLFQKLAKVW,1.98
23,RGVRRTASTPTPDDKLFQKLAKVS,2.72
24,RGVRRTASTPTPDDKLFQKLAKVF,1.95
